Data on 1 molecule can be found in patent US20190218304A1 (INNATE PHARMA, published 2019).

One assay concerns the target T1, Human CD39-L4 (human, UniProt O75356 25-428).
T1 construct: Recombinant protein coated in ELISA; also called NTPDase5; ENTPD5
T1 sequence: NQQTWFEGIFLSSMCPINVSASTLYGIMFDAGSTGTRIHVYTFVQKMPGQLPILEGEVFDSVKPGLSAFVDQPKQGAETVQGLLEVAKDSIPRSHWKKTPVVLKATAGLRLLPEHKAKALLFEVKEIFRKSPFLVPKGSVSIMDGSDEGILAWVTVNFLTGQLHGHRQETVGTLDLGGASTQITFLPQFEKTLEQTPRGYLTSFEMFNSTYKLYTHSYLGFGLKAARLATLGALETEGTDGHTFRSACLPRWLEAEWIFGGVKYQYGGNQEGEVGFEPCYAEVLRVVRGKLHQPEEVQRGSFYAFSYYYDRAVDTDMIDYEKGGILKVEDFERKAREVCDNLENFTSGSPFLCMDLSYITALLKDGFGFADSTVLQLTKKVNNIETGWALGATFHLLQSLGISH
The assay can be described thus: ELISA on coated recombinant human CD39-L4 [panel huCD39 L4]. Here is the method:
(§1) Wells were washed in TBS Tween 20, and further saturated 2H at RT in TBS Blocking buffer. Dose range concentration of primary antibody was incubated in TBS blocking buffer for 2 h at RT. Wells were washed in TBS Tween 20. […] Optical density was measured on Enspire™ at OD=450.

A further assay deals with T2, CD39 mutant 5 (human, UniProt P49961 1-510).
T2 construct: Expressed on transfected Hek-293T cells; also called M5
T2 chain: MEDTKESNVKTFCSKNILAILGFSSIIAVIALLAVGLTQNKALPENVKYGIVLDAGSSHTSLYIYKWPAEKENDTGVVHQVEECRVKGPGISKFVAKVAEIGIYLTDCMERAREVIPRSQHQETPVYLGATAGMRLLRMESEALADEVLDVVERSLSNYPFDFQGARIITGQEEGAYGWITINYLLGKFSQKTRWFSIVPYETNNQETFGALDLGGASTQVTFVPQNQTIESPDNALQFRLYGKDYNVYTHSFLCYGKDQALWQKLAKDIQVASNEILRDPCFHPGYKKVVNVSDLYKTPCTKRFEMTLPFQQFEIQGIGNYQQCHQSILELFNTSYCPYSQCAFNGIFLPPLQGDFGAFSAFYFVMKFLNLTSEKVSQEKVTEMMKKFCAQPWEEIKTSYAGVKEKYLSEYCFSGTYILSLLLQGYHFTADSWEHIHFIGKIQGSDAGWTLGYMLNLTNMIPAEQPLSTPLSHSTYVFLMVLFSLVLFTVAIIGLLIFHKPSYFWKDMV
The assay can be described thus: flow cytometry on Hek-293T cells transfected with CD39 mutant 5 [panel M5]. (In general: Flow cytometry measures light scatter and fluorescence of single cells or particles in a stream.)

The target in another assay is T3, Human CD39-L2 (human, UniProt O75354 61-484, limits assumed).
T3 construct: Recombinant protein coated in ELISA; also called NTPDase6; ENTPD6
T3 sequence: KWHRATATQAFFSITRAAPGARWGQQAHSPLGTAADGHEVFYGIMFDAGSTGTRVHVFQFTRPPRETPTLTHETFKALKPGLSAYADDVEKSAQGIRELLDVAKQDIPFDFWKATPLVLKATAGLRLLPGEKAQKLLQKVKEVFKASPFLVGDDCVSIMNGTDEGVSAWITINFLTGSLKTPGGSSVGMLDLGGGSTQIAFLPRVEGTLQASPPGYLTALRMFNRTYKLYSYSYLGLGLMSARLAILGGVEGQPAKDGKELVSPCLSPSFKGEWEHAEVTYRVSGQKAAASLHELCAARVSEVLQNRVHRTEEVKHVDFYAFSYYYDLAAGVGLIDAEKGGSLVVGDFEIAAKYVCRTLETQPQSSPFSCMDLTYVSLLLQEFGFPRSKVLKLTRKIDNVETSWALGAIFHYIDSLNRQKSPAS
The assay can be described thus: ELISA on coated recombinant human CD39-L2 [panel huCD39 L2]. Here is the method:
as §1

Assay [1] addresses T4, murine CD39 expressed on CHO cells (murine, UniProt P55772 1-510).
T4 construct: whole, on cells; also called CHO-moCD39; mouse CD39
T4 sequence (looked up): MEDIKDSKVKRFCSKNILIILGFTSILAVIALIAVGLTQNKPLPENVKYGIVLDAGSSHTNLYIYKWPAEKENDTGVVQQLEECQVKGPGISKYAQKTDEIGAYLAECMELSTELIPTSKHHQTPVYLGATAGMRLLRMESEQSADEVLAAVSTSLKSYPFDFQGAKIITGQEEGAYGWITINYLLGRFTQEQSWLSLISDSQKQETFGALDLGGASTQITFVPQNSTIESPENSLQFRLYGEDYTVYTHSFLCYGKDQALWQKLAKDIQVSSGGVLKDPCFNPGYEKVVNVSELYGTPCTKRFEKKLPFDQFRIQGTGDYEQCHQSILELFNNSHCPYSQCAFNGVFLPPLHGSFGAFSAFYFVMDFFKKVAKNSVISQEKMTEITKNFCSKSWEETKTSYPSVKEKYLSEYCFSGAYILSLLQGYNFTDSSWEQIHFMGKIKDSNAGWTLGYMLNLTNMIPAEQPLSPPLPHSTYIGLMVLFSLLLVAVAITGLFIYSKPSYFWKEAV
Description: flow cytometry titration on CHO cells expressing murine CD39 [panel CHO-moCD39]. As to the method:
Cells were incubated with various concentration of unlabeled anti-CD39 antibody from 30 μg/ml to 5×10⁻⁴ μg/ml, for 30 minutes at 4° C. After washes, cells were incubated with Goat anti-mouse H+L labeled secondary antibody for 30 min at 4° C.

In a further assay the target is T5, CD39 mutant 19 (human, UniProt P49961 1-510).
T5 construct: Expressed on transfected Hek-293T cells; also called M19
T5 chain: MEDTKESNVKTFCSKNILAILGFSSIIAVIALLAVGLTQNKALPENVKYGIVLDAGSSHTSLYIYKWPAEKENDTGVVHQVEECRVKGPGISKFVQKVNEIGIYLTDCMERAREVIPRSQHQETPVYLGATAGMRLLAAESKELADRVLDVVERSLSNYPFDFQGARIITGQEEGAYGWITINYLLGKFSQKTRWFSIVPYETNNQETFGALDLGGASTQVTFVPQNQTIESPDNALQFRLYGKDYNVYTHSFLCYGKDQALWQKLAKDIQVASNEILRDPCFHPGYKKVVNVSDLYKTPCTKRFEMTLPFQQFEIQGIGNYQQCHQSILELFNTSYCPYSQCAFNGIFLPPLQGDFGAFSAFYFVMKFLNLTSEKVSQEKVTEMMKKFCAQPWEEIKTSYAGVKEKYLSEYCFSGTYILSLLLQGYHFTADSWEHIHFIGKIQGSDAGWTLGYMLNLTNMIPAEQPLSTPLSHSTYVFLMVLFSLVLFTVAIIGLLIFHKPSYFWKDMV
Description: flow cytometry on Hek-293T cells transfected with CD39 mutant 19 [panel M19].

B1: antibody I-394 (antibody, human IgG1, kappa, V domains shown)
VH: EVQLQQSGPELVKPGASVKMSCKASGYTFTDYNMHWVKQSHGRTLEWIGYIVPLNGGSTFNQKFKGRATLTVNTSSRTAYMELRSLTSEDSAAYYCARGGTRFAYWGQGTLVTVSA
VL: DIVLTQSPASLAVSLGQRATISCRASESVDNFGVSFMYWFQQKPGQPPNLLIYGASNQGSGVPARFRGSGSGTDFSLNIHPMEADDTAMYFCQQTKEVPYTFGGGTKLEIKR
notes: The hybridoma-derived mouse form was used in early screening
Regarding B1, the binding result is recorded as “no binding” in the assay with Human CD39-L4; “binds” in the assay with CD39 mutant 5; “no binding” in the assay with Human CD39-L2; “no binding” in assay [1]; “no binding” in the assay with CD39 mutant 19.
